Laboratory results as given in patent US20140099299A1 (UAB RESEARCH FOUNDATION, published 2014).

T1: human IL-10R1 chain coupled to agarose beads (human, UniProt Q13651 22-235)
T1 construct: also called HuIL-10R1 coupled beads; human IL-10R1 beads
T1 sequence: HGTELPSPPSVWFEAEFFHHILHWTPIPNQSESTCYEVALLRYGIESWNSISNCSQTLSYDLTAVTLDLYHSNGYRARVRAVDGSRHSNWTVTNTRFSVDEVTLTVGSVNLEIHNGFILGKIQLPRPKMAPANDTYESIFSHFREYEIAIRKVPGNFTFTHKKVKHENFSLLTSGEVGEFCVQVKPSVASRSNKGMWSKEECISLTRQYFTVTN

T2: human IL-10R1 chain on transfected TF-1 cells (TF-1/HuIL-10R1) (human, UniProt Q13651 22-578)
T2 sequence: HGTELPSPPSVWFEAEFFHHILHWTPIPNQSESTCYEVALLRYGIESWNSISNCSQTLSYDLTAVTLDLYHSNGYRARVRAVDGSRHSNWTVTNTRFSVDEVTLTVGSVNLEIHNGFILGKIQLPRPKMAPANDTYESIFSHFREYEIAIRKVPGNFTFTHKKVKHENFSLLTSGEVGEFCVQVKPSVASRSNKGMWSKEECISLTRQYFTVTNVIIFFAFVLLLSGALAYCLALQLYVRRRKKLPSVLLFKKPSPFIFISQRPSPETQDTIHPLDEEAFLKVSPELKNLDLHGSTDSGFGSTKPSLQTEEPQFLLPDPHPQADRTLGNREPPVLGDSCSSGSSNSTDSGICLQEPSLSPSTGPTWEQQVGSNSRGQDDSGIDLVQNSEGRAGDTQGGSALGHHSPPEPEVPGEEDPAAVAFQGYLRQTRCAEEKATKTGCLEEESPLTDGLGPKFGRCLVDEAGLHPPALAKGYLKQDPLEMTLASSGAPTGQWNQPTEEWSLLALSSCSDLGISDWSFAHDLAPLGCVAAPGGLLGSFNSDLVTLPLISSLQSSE


What was measured:
[1] = biological target: T1, human IL-10R1 chain coupled to agarose …; assay: pull-down of 500 µL Drosophila medium with 15 µL HuIL-10R1-coupled agarose beads, Coomassie-stained SDS-PAGE
[2] = biological target: T2, human IL-10R1 chain on transfected TF-1 …; assay: cell-based or functional assay

Binder | binding result [1] | proliferation of TF-1/HuIL-10R1 cells [2]
H6FXa-rhcmvIL-10 Arg-34Glu point mutant (R63E of SEQ ID NO:1) (ligand, Tested as Drosophila cell supernatant; Its exact end in pAHF cannot be seen because the underlining is lost; also called R34E; Lys-34Glu) PPHHHHHHSDIEGRAHDHEHKEVPPACDPVHGNLAGIFKELRATYASIEEGLQKKDTVYYTSLFNDRVLHEMLSPMGCRVTNELMEHYLDGVLPRASHLDYDNSTLNGLHVFASSMQALYQHMLKCPALACTGKTPAWMYFLEVEHKLNPWRGTAKAAAEADLLLNYLETFLLQF | no binding | 
H6FXa-rhcmvIL-10 Asp-144His point mutant (D176H of SEQ ID NO:1) (ligand, Tested as Drosophila cell supernatant; also called D144H) PPHHHHHHSDIEGRAHDHEHKEVPPACDPVHGNLAGIFKELRATYASIREGLQKKDTVYYTSLFNDRVLHEMLSPMGCRVTNELMEHYLDGVLPRASHLDYDNSTLNGLHVFASSMQALYQHMLKCPALACTGKTPAWMYFLEVEHKLNPWRGTAKAAAEAHLLLNYLETFLLQF | no binding | ~300 fold reduction in activity
H6FXa-rhcmvIL-10 Gln-38Arg point mutant (Q67R of SEQ ID NO:1) (ligand, Tested as Drosophila cell supernatant; also called Q38R) PPHHHHHHSDIEGRAHDHEHKEVPPACDPVHGNLAGIFKELRATYASIREGLRKKDTVYYTSLFNDRVLHEMLSPMGCRVTNELMEHYLDGVLPRASHLDYDNSTLNGLHVFASSMQALYQHMLKCPALACTGKTPAWMYFLEVEHKLNPWRGTAKAAAEADLLLNYLETFLLQF | no binding | ~100 fold reduction in activity
